Marks after values point to notes of the source that are not given here.

Data set [1] concerns the target T1, NDM-1 (Klebsiella pneumoniae, UniProt C7C422). The format is biochemical. Further details: His-tag (3C protease cleavable) (N, cleaved yes); made in house; host or cells: E. coli BL21(DE3) pLysS. The settings on record: substrate hydrolysis. The source says: (§1) Taking into account the aforementioned requirements,
(§2) absorbance from Greiner Bio-One were used.
(§3) Determination of the steady state kinetic
(§4) concentration using the same software.

Data set [2] has as its target T2, SPM-1 (Pseudomonas aeruginosa, UniProt Q8G9Q0). In words: biochemical.
Text: as §1, §2, §3, §4

Data set [3] deals with T2, SPM-1. In words: SPM-1 inhibition (residual activity, IC50), FC4 as reporter substrate. The format is biochemical.
Text: To achieve clinical utility, MBL inhibitors may need to act on more than one MBL subfamily. This is potentially challenging because of the generally low sequence similarity between MBLs of different subfamilies (B1, B2, B3). […] This set of compounds was selected as a result of their previously reported inhibition of metal-binding oxygenases.[51] […] In contrast, the compounds derivatized with a Trp, Leu, Asp, or Glu residue inhibited SPM-1, with the tryptophan-functionalized chloroisoquinolinols (S)-7d and (R)-7d giving the most promising results (3% and 8% residual activity (RA) at 200 μM, respectively).
as §1, §2, §3, §4
(§5) Additional tests verified

Another data set deals with VIM-2 (Escherichia coli, UniProt Q5U7L7). In words: biochemical.
For a further data set, the target named is T3, Bc II (Bacillus cereus, UniProt P04190).
T3 construct: made in house; host or cells: E. coli BL21(DE3) pLysS
T3 sequence (P04190 31-257): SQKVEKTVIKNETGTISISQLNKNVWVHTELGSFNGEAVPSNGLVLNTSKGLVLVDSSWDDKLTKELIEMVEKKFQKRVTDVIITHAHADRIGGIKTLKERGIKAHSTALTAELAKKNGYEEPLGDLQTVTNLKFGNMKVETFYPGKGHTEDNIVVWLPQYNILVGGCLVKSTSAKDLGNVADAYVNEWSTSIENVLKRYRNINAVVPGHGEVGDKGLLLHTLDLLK
In words: Bc II inhibition IC50, FC4 as reporter substrate. The format is biochemical.
Text: as §1, §2, §3, §4, §5

The target of a further data set is IMP-1 (Serratia marcescens, UniProt P52699). In words: biochemical.
IMP-1, sequence (P52699 19-246 limits assumed): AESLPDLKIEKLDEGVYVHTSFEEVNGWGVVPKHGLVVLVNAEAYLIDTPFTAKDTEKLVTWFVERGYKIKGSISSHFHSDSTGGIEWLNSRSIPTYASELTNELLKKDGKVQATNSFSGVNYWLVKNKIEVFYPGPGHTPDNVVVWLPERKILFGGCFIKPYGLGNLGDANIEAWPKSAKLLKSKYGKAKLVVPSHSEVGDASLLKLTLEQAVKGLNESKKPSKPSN
For data set [4], the target named is T1, NDM-1. In words: biochemical.
Data set [5] has as its system O=C(Cc1ccccc1)N[C@@H]1C(=O)N2C(C(=O)O)=C(COc3ccc4ccc(=O)oc4c3)C[S+]([O-])[C@H]12. In words: purified protein, by the assay type. The settings on record: substrate hydrolysis.
Data set [6] concerns [H][C@@]12[C@H](NC(=O)Cc3ccccc3)C(=O)N1C(C(=O)O)=C(COc1ccc3ccc(=O)oc3c1)CS2(=O)=O. In words: purified protein, by the assay type. Particulars: substrate hydrolysis.
The test system of data set [7] is C[C@@H](O)[C@H]1C(=O)N2C(C(=O)O)=C(SCCN=CN)C[C@H]12. Nature of the data set: purified protein, by the assay type. The settings on record: substrate hydrolysis.
Data set [8] concerns O=C(Cc1ccccc1)N[C@@H]1C(=O)N2C(C(=O)O)=C(COc3ccc4ccc(=O)oc4c3)CS[C@H]12. In words: purified protein, by the assay type. The settings on record: other: NDM-1; substrate hydrolysis.
For data set [9], the system named is O=C(Cc1cccs1)N[C@@H]1C(=O)N2C(C(=O)O)=C(/C=C/c3ccc([N+](=O)[O-])cc3[N+](=O)[O-])CS[C@H]12. Nature of the data set: purified protein, by the assay type. The settings on record: substrate hydrolysis.
Data set [10] concerns O=C(Cc1cccs1)N[C@@H]1C(=O)N2C(C(=O)O)=C(CSc3ccc([N+](=O)[O-])c(C(=O)O)c3)CS[C@H]12. Nature of the data set: purified protein, by the assay type. The settings on record: substrate hydrolysis.
Data set [11] can be described thus: Autohydrolysis and storage stability of fluorogenic substrates. The format is physicochemical. The settings on record: for period of use when stored as solids: solids at −20 °C; for time solutions could be used: solutions stored on ice.

T1 sequence (C7C422 29-270 limits assumed): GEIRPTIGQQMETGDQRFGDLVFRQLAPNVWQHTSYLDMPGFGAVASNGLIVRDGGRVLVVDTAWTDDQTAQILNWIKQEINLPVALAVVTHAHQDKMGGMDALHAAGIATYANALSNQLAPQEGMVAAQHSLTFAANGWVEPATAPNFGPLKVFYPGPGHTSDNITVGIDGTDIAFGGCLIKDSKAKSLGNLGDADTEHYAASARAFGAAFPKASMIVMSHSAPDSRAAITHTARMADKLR
T2 sequence (Q8G9Q0 entry or part of it): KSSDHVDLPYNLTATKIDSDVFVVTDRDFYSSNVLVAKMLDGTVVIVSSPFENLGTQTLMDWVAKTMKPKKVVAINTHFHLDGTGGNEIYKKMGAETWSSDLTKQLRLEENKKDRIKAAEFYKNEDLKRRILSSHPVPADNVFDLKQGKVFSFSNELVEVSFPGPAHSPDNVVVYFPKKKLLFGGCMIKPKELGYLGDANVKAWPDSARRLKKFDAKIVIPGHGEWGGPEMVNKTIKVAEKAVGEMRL

Turning to `O=C(Cc1cccs1)N[C@@H]1C(=O)N2C(C(=O)O)=C(/C=C/c3ccc([N+](=O)[O-])cc3[N+](=O)[O-])CS[C@H]12` [nitrocefin], on NDM-1 [1], the Km was 8.8 ± 1.1 µM and the kcat came to 25.3 s^–1. At SPM-1 [2] (apparent Ki value for substrate/product inhibition, table footnote), the Ki came out at 36.6 µM. In addition, on SPM-1 [2] (concentration at which SPM-1 is inhibited by nitrocefin/nitrocefin-derived species, substrate or product inhibition), the Ki amounted to 36 µM.
For the molecule `O=C(N[C@@H](Cc1c[nH]c2ccccc12)C(=O)O)c1nc(Cl)c2ccccc2c1O` [(S)-7d], the IC50 came out at 23.2 ± 1.1 µM at SPM-1 [3]; 54.7 ± 1.4 µM against VIM-2; 61.3 ± 1.3 µM on Bc II; 75.6 ± 1.5 µM against IMP-1; 61.4 ± 1.3 µM on NDM-1 [4].
Take NDM-1 (Klebsiella pneumoniae): the Km was found to be 4.0 ± 0.8 µM in data set [5] (other: NDM-1) and 2.4 ± 0.2 µM in [6] (other: NDM-1). The kcat/Km in data set [5] (other: NDM-1) was 3.2e+07 M⁻¹ s⁻¹; in [6] (other: NDM-1) it was 1.24e+08 M⁻¹ s⁻¹; in data set [7] (other: NDM-1) it was 3.6e+06 M⁻¹ s⁻¹; in [8] it was 5.8e+06 M⁻¹ s⁻¹.
Regarding IMP-1 (Serratia marcescens), the kcat/Km is 8.07e+08 M⁻¹ s⁻¹ in data set [5] (other: IMP-1); 5.17e+08 M⁻¹ s⁻¹ in data set [6] (other: IMP-1); 2.81e+07 M⁻¹ s⁻¹ in data set [7] (other: IMP-1); 5.02e+07 M⁻¹ s⁻¹ in [9] (other: IMP-1); 2.53e+07 M⁻¹ s⁻¹ in data set [10] (other: IMP-1). Also, the kcat in data set [7] (other: IMP-1) came to 1200 s⁻¹; in data set [9] (other: IMP-1) it was 2790 s⁻¹. The Km in data set [9] (other: IMP-1) is 55.7 ± 4.8 µM.
As to `O=C(N[C@H](Cc1c[nH]c2ccccc12)C(=O)O)c1nc(Cl)c2ccccc2c1O` [(R)-7d], the IC50 was found to be 46.6 ± 1.1 µM at SPM-1 [3]; 55.3 ± 1.3 µM against VIM-2; 132.4 ± 1.3 µM on Bc II; 74.1 ± 1.6 µM on IMP-1; 47.1 ± 1.1 µM on NDM-1 [4].
For BcII (Bacillus cereus), the kcat/Km was determined as 700000 M⁻¹ s⁻¹ in [5] (other: BcII); 3.7e+06 M⁻¹ s⁻¹ in data set [6] (other: BcII); 400000 M⁻¹ s⁻¹ in data set [7] (other: BcII); 1.8e+06 M⁻¹ s⁻¹ in [9] (other: BcII); 60000 M⁻¹ s⁻¹ in data set [10] (other: BcII). In addition, in data set [9] (other: BcII), the Km is 8.1 ± 1.0 µM. Also, the results for the kcat in data set [9] (other: BcII) and in data set [10] (other: BcII) were 14.9 s⁻¹ and 8.9 s⁻¹, respectively.
Consider `O=C(O)c1ccc(O)cc1O` [β-Resorcylic acid, reference compound], for which, on SPM-1 [3] (compound at 1 mM, FC4 reporter substrate, 10 min preincubation), the “RA 1 mM (residual activity on SPM-1)” value was found to be 76%.
Consider VIM-2 (Escherichia coli), for which the Km turned out to be 6.3 ± 0.4 µM in [5] (other: VIM-2) and 7.2 ± 0.6 µM in [9] (other: VIM-2). The kcat/Km in data set [5] (other: VIM-2) was determined as 2e+07 M⁻¹ s⁻¹; in [6] (other: VIM-2) it was 1.91e+07 M⁻¹ s⁻¹; in data set [7] (other: VIM-2), 1.1e+06 M⁻¹ s⁻¹; in data set [9] (other: VIM-2), 3.12e+07 M⁻¹ s⁻¹; in data set [10] (other: VIM-2), 1.8e+06 M⁻¹ s⁻¹. Also, the kcat in [9] (other: VIM-2) is 226 s⁻¹.
In the case of SPM-1 (Pseudomonas aeruginosa), the Km in [5] (other: SPM-1) was 2.5 ± 0.2 µM; in data set [6] (other: SPM-1), 2.7 ± 0.2 µM; in data set [9] (other: SPM-1) it was 16.0 ± 3.7 ^c μM. The kcat was found to be 8.7 s⁻¹ in [5] (other: SPM-1), 0.7 s⁻¹ in data set [9] (other: SPM-1) and 6.1 s⁻¹ in data set [10] (other: SPM-1). In addition, the kcat/Km is 3.5e+06 M⁻¹ s⁻¹ in [5] (other: SPM-1); 1.03e+07 M⁻¹ s⁻¹ in [6] (other: SPM-1); 100000 M⁻¹ s⁻¹ in data set [7] (other: SPM-1); 40000 M⁻¹ s⁻¹ in data set [9] (other: SPM-1); 200000 M⁻¹ s⁻¹ in data set [10] (other: SPM-1).
In the case of `O=C(Cc1ccccc1)N[C@@H]1C(=O)N2C(C(=O)O)=C(COc3ccc4ccc(=O)oc4c3)CS[C@H]12` [FC3], the autohydrolysis in buffer result in [11] (buffer, room temperature, after 3 h) is “substantial hydrolysis”.
Turning to `O=C(Cc1ccccc1)N[C@@H]1C(=O)N2C(C(=O)O)=C(COc3ccc4ccc(=O)oc4c3)C[S+]([O-])[C@H]12` (stereo partly drawn) [FC4, (6R,7R)-8-Oxo-3-(((2-oxo-2H-chromen-7-yl)oxy)methyl)-7-(2-phenylacetamido)-5-thia-1-azabicyclo[4.2.0]oct-2-ene-2-carboxylic Acid 5-Oxide], the “time stable in buffer (autohydrolysis study)” value in data set [11] (buffer, room temperature) is listed as “at least 8 h”. Moreover, in data set [11], the “period of use when stored as solids” value is on record as “months” and the “time solutions could be used” value was in the range of 1 to 2 days.
The matching figures for `O=C(Cc1ccccc1)N[C@@H]1C(=O)N2C(C(=O)O)=C(COc3ccc4ccc(=O)oc4c3)CS(=O)(=O)[C@H]12` [FC5, (6R,7R)-8-Oxo-3-(((2-oxo-2H-chromen-7-yl)oxy)methyl)-7-(2-phenylacetamido)-5-thia-1-azabicyclo[4.2.0]oct-2-ene-2-carboxylic Acid 5,5-Dioxide]: “at least 8 h”, “months” and 1 to 2 days.

The term Km denotes the concentration of substrate that gives half-maximal velocity. Usually IC50 stands for the point on the concentration scale where inhibition reaches its midpoint. One may read the kcat/Km as the turnover number divided by the Michaelis constant.

The values above are taken from article PMC3910272, “Assay Platform for Clinically Relevant Metallo-β-lactamases” (Journal of Medicinal Chemistry, 2013).
